Data reported in the supplement of paper PMC9112550, “Optimization of the antimicrobial peptide Bac7 by deep mutational scanning” (BMC Biology, 2022).

These sequences were tested on Escherichia coli TOP10 (assay: shrunken log2 fold change of peptide-encoding DNA abundance (4.5 h post-induction vs induction); higher = less antimicrobial activity (less host growth inhibition)). Conditions: time post-induction: 4.5 h; library: site-saturation at positions 5, 18, 19, 20.
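Also: peptides expressed intracellularly from a pBAD plasmid library in pooled LB shake-flask culture, induced with 0.3% L-arabinose, DNA abundance read by NGS, three biological replicates, DESeq2 with apeglm shrinkage.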

| Sequence | shrunken log2 fold change |
| --- | --- |
| RRIRDRPPRLPRPRPRPWGEPRP | 0.0987 |
| RRIRHRPPRLPRPRPRPDFDPRP | 0.0484 |
| RRIRIRPPRLPRPRPRPSVQPRP | -0.51 |
| RRIRGRPPRLPRPRPRPCCKPRP | -0.108 |
| RRIRMRPPRLPRPRPRPPIFPRP | 0.00125 |
| RRIRIRPPRLPRPRPRPFWCPRP | -0.014 |
| RRIRWRPPRLPRPRPRPCSWPRP | 0.0533 |
| RRIRYRPPRLPRPRPRPPAQPRP | 0.23 |
| RRIRFRPPRLPRPRPRPWLMPRP | -0.58 |
| RRIRCRPPRLPRPRPRPYGSPRP | -0.517 |
| RRIRRRPPRLPRPRPRPQFIPRP | -0.387 |
| RRIRPRPPRLPRPRPRPVWLPRP | 0.577 |
| RRIRCRPPRLPRPRPRPFTHPRP | -0.818 |
| RRIRKRPPRLPRPRPRPHNHPRP | -0.533 |
| RRIRKRPPRLPRPRPRPRAKPRP | 0.173 |
| RRIRYRPPRLPRPRPRPHIVPRP | -0.102 |
| RRIRNRPPRLPRPRPRPSMFPRP | -0.458 |
| RRIRNRPPRLPRPRPRPKPAPRP | 0.601 |
| RRIRRRPPRLPRPRPRPEFEPRP | 0.37 |
| RRIRVRPPRLPRPRPRPECRPRP | 0.238 |
| RRIRLRPPRLPRPRPRPRCVPRP | 0.0662 |
| RRIRIRPPRLPRPRPRPRDYPRP | -0.14 |
| RRIRARPPRLPRPRPRPYCHPRP | -0.381 |
| RRIRTRPPRLPRPRPRPLMLPRP | -0.297 |
| RRIRERPPRLPRPRPRPEGTPRP | -0.0267 |

| Sequence | shrunken log2 fold change |
| --- | --- |
| RRIRARPPRLPRPRPRPWNFPRP | -0.123 |
| RRIRLRPPRLPRPRPRPHQMPRP | -0.199 |
| RRIRWRPPRLPRPRPRPMFYPRP | -0.395 |
| RRIRHRPPRLPRPRPRPKHDPRP | -0.363 |
| RRIRARPPRLPRPRPRPSWFPRP | 0.156 |
| RRIRERPPRLPRPRPRPVFMPRP | -0.356 |
| RRIRDRPPRLPRPRPRPKKNPRP | 0.125 |
| RRIRARPPRLPRPRPRPKIIPRP | -0.287 |
| RRIRWRPPRLPRPRPRPGYSPRP | -0.191 |
| RRIRYRPPRLPRPRPRPQILPRP | -0.0395 |
| RRIRRRPPRLPRPRPRPCTQPRP | 0.207 |
| RRIRSRPPRLPRPRPRPSIFPRP | -0.511 |
| RRIRWRPPRLPRPRPRPHTMPRP | -0.00694 |
| RRIRERPPRLPRPRPRPISNPRP | -0.25 |
| RRIRLRPPRLPRPRPRPANNPRP | -0.116 |
| RRIRPRPPRLPRPRPRPTPSPRP | 0.312 |
| RRIRQRPPRLPRPRPRPVSKPRP | -0.014 |
| RRIRPRPPRLPRPRPRPLSDPRP | -0.0446 |
| RRIRNRPPRLPRPRPRPRSCPRP | 0.763 |
| RRIRTRPPRLPRPRPRPFDRPRP | 0.0237 |
| RRIRVRPPRLPRPRPRPTAYPRP | -0.094 |
| RRIRWRPPRLPRPRPRPRWTPRP | 0.386 |
| RRIRRRPPRLPRPRPRPGNWPRP | 0.393 |
| RRIRHRPPRLPRPRPRPTWHPRP | -0.073 |
| RRIRIRPPRLPRPRPRPNPFPRP | -0.502 |

| Sequence | shrunken log2 fold change |
| --- | --- |
| RRIRKRPPRLPRPRPRPNDSPRP | -0.042 |
| RRIRKRPPRLPRPRPRPTNRPRP | -0.0262 |
| RRIRERPPRLPRPRPRPHPSPRP | -0.222 |
| RRIRCRPPRLPRPRPRPGPPPRP | 0.942 |
| RRIRQRPPRLPRPRPRPVNTPRP | -0.0633 |
| RRIRTRPPRLPRPRPRPNDHPRP | -0.0838 |
| RRIRQRPPRLPRPRPRPKHFPRP | -0.0231 |
| RRIRDRPPRLPRPRPRPADKPRP | -0.0463 |
| RRIRARPPRLPRPRPRPTINPRP | -0.00779 |
| RRIRIRPPRLPRPRPRPKGAPRP | 0.36 |
| RRIRSRPPRLPRPRPRPIQSPRP | -0.0288 |
| RRIRTRPPRLPRPRPRPAMPPRP | 0.131 |
| RRIRWRPPRLPRPRPRPSVWPRP | 0.218 |
| RRIRNRPPRLPRPRPRPRILPRP | -0.0548 |
| RRIRNRPPRLPRPRPRPPMRPRP | 1.05 |
| RRIRLRPPRLPRPRPRPYARPRP | -0.44 |
| RRIRVRPPRLPRPRPRPPFTPRP | 0.955 |
| RRIRERPPRLPRPRPRPCIFPRP | -0.749 |
| RRIRKRPPRLPRPRPRPWYEPRP | -0.0672 |
| RRIRMRPPRLPRPRPRPGGTPRP | 0.722 |
| RRIRHRPPRLPRPRPRPMIEPRP | 0.0253 |
| RRIRTRPPRLPRPRPRPMFAPRP | -0.0818 |
| RRIRWRPPRLPRPRPRPKWNPRP | -0.095 |
| RRIRRRPPRLPRPRPRPGSNPRP | 0.0402 |
| RRIRSRPPRLPRPRPRPLGRPRP | 0.351 |

| Sequence | shrunken log2 fold change |
| --- | --- |
| RRIRTRPPRLPRPRPRPRSVPRP | -0.272 |
| RRIRIRPPRLPRPRPRPRWGPRP | 0.181 |
| RRIRLRPPRLPRPRPRPRTNPRP | 0.113 |
| RRIRVRPPRLPRPRPRPFLYPRP | -0.728 |
| RRIRYRPPRLPRPRPRPTMWPRP | 0.0172 |
| RRIRCRPPRLPRPRPRPRDIPRP | -0.132 |
| RRIRWRPPRLPRPRPRPIHHPRP | -0.332 |
| RRIRHRPPRLPRPRPRPYHYPRP | -0.125 |
| RRIRERPPRLPRPRPRPSACPRP | 0.0132 |
| RRIRVRPPRLPRPRPRPNQMPRP | -0.092 |
| RRIRRRPPRLPRPRPRPIGFPRP | 0.0265 |
| RRIRARPPRLPRPRPRPMVYPRP | -0.0537 |
| RRIRFRPPRLPRPRPRPHQGPRP | -0.0419 |
| RRIRARPPRLPRPRPRPYRGPRP | -0.213 |
| RRIRWRPPRLPRPRPRPMVAPRP | 0.457 |
| RRIRMRPPRLPRPRPRPMPVPRP | 0.064 |
| RRIRQRPPRLPRPRPRPKYCPRP | 0.0636 |
| RRIRMRPPRLPRPRPRPFVTPRP | -0.269 |
| RRIRLRPPRLPRPRPRPVPIPRP | 0.125 |
| RRIRIRPPRLPRPRPRPSIRPRP | -0.212 |
| RRIRERPPRLPRPRPRPDKIPRP | -0.0617 |
| RRIRFRPPRLPRPRPRPCDIPRP | -0.0737 |
| RRIRVRPPRLPRPRPRPSDRPRP | 0.194 |
| RRIRIRPPRLPRPRPRPHGLPRP | -0.00134 |
| RRIRMRPPRLPRPRPRPRGHPRP | 1.33 |

| Sequence | shrunken log2 fold change |
| --- | --- |
| RRIRKRPPRLPRPRPRPPEAPRP | 0.948 |
| RRIRIRPPRLPRPRPRPAGTPRP | -0.108 |
| RRIRARPPRLPRPRPRPDMCPRP | -0.335 |
| RRIRSRPPRLPRPRPRPFFYPRP | -0.17 |
| RRIRYRPPRLPRPRPRPVLSPRP | -0.311 |
| RRIRRRPPRLPRPRPRPNGGPRP | 0.171 |
| RRIRWRPPRLPRPRPRPRLNPRP | 0.545 |
| RRIRERPPRLPRPRPRPEDMPRP | -0.0115 |
| RRIRCRPPRLPRPRPRPERTPRP | 0.766 |
| RRIRLRPPRLPRPRPRPGEAPRP | 0.214 |
| RRIRARPPRLPRPRPRPRHTPRP | 0.419 |
| RRIRKRPPRLPRPRPRPDHQPRP | -0.0497 |
| RRIRLRPPRLPRPRPRPNRHPRP | -0.312 |
| RRIRARPPRLPRPRPRPPQTPRP | 0.9 |
| RRIRLRPPRLPRPRPRPHYYPRP | -0.438 |
| RRIRDRPPRLPRPRPRPAFEPRP | 0.906 |
| RRIRIRPPRLPRPRPRPGASPRP | 0.0546 |
| RRIRVRPPRLPRPRPRPDCSPRP | -0.0973 |
| RRIRPRPPRLPRPRPRPCFEPRP | 0.0232 |
| RRIRTRPPRLPRPRPRPAERPRP | -0.104 |
| RRIRCRPPRLPRPRPRPTETPRP | -0.0479 |
| RRIRDRPPRLPRPRPRPMIGPRP | 0.266 |
| RRIRMRPPRLPRPRPRPCVQPRP | -0.0115 |
| RRIRNRPPRLPRPRPRPMVMPRP | -0.383 |
| RRIRQRPPRLPRPRPRPICSPRP | -0.0668 |

| Sequence | shrunken log2 fold change |
| --- | --- |
| RRIRPRPPRLPRPRPRPGNKPRP | -0.0476 |
| RRIRRRPPRLPRPRPRPRNSPRP | -0.0834 |
| RRIRKRPPRLPRPRPRPCREPRP | 0.368 |
| RRIRMRPPRLPRPRPRPENMPRP | 0.0343 |
| RRIRWRPPRLPRPRPRPPVLPRP | 0.433 |
| RRIRRRPPRLPRPRPRPMGMPRP | 0.747 |
| RRIRMRPPRLPRPRPRPMPTPRP | 2.8 |
| RRIRHRPPRLPRPRPRPNADPRP | 0.031 |
| RRIRCRPPRLPRPRPRPTLHPRP | -0.0488 |
| RRIRPRPPRLPRPRPRPHLCPRP | 0.0476 |
| RRIRPRPPRLPRPRPRPMPHPRP | -0.169 |
| RRIRKRPPRLPRPRPRPLTCPRP | -0.000599 |
| RRIRARPPRLPRPRPRPYTQPRP | -0.593 |
| RRIRYRPPRLPRPRPRPDTLPRP | -0.195 |
| RRIRIRPPRLPRPRPRPDSQPRP | -0.0342 |
| RRIRQRPPRLPRPRPRPNIPPRP | -0.262 |
| RRIRERPPRLPRPRPRPSERPRP | -0.239 |
| RRIRWRPPRLPRPRPRPAHPPRP | 0.304 |
| RRIRHRPPRLPRPRPRPVDMPRP | -0.201 |
| RRIRVRPPRLPRPRPRPQKRPRP | -0.0953 |
| RRIRVRPPRLPRPRPRPCIVPRP | -0.0169 |
| RRIRWRPPRLPRPRPRPHGGPRP | -0.0606 |
| RRIRHRPPRLPRPRPRPNFVPRP | -0.0788 |
| RRIRKRPPRLPRPRPRPWVVPRP | 0.423 |
| RRIRRRPPRLPRPRPRPTSGPRP | 0.252 |
